In patent US20150024411A1:
Each block holds one substance with its values, some of them ahead of it.

Assays:
[1] = target: human CD8 on CD8+ T cells of PBMC or whole blood (human) (UniProt P01732); experiment: cell affinity chromatography: Fab on Strep-Tactin Sephadex-50, human PBMC, flow cytometry of start and flow-through
[2] = target: human CD8 on CD8+ T cells of PBMC or whole blood (human) (UniProt P01732); experiment: cell affinity chromatography: PBMC pre-incubated with Fab, Superflow Strep-Tactin column, FACS of start and wash fractions
[3] = target: human CD8 on CD8+ T cells of PBMC or whole blood (human) (UniProt P01732); experiment: Cell affinity chromatography on Strep-Tactin agarose functionalized with the anti-CD8 Fab, human PBMC; starting sample 24,1% CD8+ (a) [b]
[4] = target: human CD8 on CD8+ T cells of PBMC or whole blood (human) (UniProt P01732); experiment: Cell affinity chromatography on Strep-Tactin agarose functionalized with the anti-CD8 Fab, human PBMC; starting sample 24,1% CD8+ (a) [c]
[5] = target: human CD8 on CD8+ T cells of PBMC or whole blood (human) (UniProt P01732); experiment: Cell affinity chromatography on Strep-Tactin agarose functionalized with the anti-CD8 Fab, human whole blood; starting sample 0,041% CD8+ (a) [b]
[6] = target: human CD8 on CD8+ T cells of PBMC or whole blood (human) (UniProt P01732); experiment: Cell affinity chromatography on Strep-Tactin agarose functionalized with the anti-CD8 Fab, human whole blood; starting sample 0,041% CD8+ (a) [c]
[7] = target: human CD8 on CD8+ T cells of PBMC or whole blood (human) (UniProt P01732); experiment: Flow cytometry of PBMC fractions from a Sephadex G50/Strep-Tactin column loaded with the CD8 Fab; the same marker reads 28 before selection (diagram A)
[8] = target: murine CD4 on splenocytes (murine) (UniProt P06332); experiment: Pipette tip cell affinity chromatography on Strep-Tactin agarose functionalized with the GK1.5 Fab, murine splenocytes; starting sample 21,7% CD4+ (a) [b]
[9] = target: murine CD4 on splenocytes (murine) (UniProt P06332); experiment: Pipette tip cell affinity chromatography on Strep-Tactin agarose functionalized with the GK1.5 Fab, murine splenocytes; starting sample 21,7% CD4+ (a) [c]
[10] = target: murine CD4 on splenocytes (murine) (UniProt P06332); experiment: Pipette tip cell affinity chromatography on Strep-Tactin agarose functionalized with the GK1.5 Fab, murine splenocytes; starting sample 19,6% CD3+CD4+ (a) [b]
[11] = target: murine CD4 on splenocytes (murine) (UniProt P06332); experiment: Pipette tip cell affinity chromatography on Strep-Tactin agarose functionalized with the GK1.5 Fab, murine splenocytes; starting sample 19,6% CD3+CD4+ (a) [c]
[12] = target: human CD4 on CD4+ cells of PBMC or whole blood (human) (UniProt P01730); experiment: Pipette tip cell affinity chromatography on Strep-Tactin agarose functionalized with the m13B8.2 Fab, human PBMC; starting sample 52,3% CD4+ (a) [b]
[13] = target: human CD4 on CD4+ cells of PBMC or whole blood (human) (UniProt P01730); experiment: Pipette tip cell affinity chromatography on Strep-Tactin agarose functionalized with the m13B8.2 Fab, human PBMC; starting sample 52,3% CD4+ (a) [c]
[14] = target: human CD4 on CD4+ cells of PBMC or whole blood (human) (UniProt P01730); experiment: Pipette tip cell affinity chromatography on Strep-Tactin agarose functionalized with the m13B8.2 Fab, human whole blood; starting sample 1,20% CD4+ (a) [b]
[15] = target: human CD4 on CD4+ cells of PBMC or whole blood (human) (UniProt P01730); experiment: Pipette tip cell affinity chromatography on Strep-Tactin agarose functionalized with the m13B8.2 Fab, human whole blood; starting sample 1,20% CD4+ (a) [c]

Chain of UniProt P06332 (P06332 27-457): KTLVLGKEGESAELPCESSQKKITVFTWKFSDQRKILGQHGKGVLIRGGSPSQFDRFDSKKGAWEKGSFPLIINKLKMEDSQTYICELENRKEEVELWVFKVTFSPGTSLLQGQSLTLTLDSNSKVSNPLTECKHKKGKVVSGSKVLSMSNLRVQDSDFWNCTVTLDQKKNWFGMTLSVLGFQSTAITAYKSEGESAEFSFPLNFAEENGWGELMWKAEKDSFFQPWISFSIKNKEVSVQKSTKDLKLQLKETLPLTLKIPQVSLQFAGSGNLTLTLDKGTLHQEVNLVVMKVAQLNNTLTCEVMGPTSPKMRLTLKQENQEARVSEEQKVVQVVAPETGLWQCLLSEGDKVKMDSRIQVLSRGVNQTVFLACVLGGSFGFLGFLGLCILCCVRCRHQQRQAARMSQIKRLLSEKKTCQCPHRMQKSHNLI
Chain of UniProt P01732 (P01732 22-235): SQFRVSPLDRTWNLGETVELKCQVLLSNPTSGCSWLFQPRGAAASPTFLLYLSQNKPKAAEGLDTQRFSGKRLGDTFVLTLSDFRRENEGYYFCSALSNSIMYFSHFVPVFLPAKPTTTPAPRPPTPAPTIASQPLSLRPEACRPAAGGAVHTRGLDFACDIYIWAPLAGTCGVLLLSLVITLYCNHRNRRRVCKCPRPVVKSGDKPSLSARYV

percent of PBMC that are CD8+ T-cells bound to the column [1]: 12.1%
percent of the CD8+ T-cells bound to the column [1]: 66%
percent of CD8+ cells retarded on the column [2]: 77.8%
% CD8+ cells in the CD8-negative wash fraction [3]: 4.83%
% CD8+ cells in the biotin eluate fraction [4]: 88.2%
% CD8+ cells in the CD8-negative wash fraction [5]: 0.005%
% CD8+ cells in the biotin eluate fraction [6]: 79.8%
% cells in the CD8-positive marker of the CD8 histogram, 1. elution fraction immediately with D-Biotin [7]: 67%
% cells in the CD8-positive marker of the CD8 histogram, 2. elution fraction after D-Biotin and subsequent washing [7]: 76%
% cells in the CD8-positive marker of the CD8 histogram, wash through fraction [7]: 10%
Substance: CD8 binding Fab fragment, heavy chain carboxy-terminally fused with a sequential arrangement of two streptavidin binding modules (IBA GmbH, catalogue number 6-8003)

% CD4+ cells in the CD4-negative wash fraction [8]: 2.78%
% CD4+ cells in the biotin eluate fraction [9]: 84.7%
% CD3+CD4+ cells in the CD4-negative wash fraction [10]: 0.977%
% CD3+CD4+ cells in the biotin eluate fraction [11]: 80.8%
Substance: anti-CD4 Fab fragment with the wild-type variable domains of the CD4 binding antibody GK1.5 and two streptavidin binding modules at the C-terminus of the heavy chain

% CD4+ cells in the CD4-negative wash fraction [12]: 5.88%
% CD4+ cells in the biotin eluate fraction [13]: 99.4%
% CD4+ cells in the CD4-negative wash fraction [14]: 0.144%
% CD4+ cells in the biotin eluate fraction [15]: 70.4%
Substance: mutant Fab fragment m13B8.2 (variable domains of the CD4 binding murine antibody 13B8.2 with light chain His91Ala and heavy chain Arg53Ala, human CH1 gamma1 and human kappa constant domains, two streptavidin binding modules at the C-terminus of the heavy chain)
